Reference: paper doi:10.1101/2021.01.21.427698

Biological target: T1, human SEPT2 with a TEV-cleavable N-terminal His6-tag (human), Q15019
T1 chain: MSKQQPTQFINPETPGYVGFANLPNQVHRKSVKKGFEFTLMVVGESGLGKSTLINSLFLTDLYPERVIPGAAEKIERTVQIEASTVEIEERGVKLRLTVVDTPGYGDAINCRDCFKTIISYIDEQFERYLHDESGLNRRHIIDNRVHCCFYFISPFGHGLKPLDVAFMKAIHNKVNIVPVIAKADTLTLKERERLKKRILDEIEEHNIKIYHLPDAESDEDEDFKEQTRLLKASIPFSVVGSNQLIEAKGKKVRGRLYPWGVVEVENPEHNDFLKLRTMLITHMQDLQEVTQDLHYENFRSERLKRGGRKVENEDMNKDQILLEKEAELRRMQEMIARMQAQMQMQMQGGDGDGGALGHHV
Conditions: remark: other sources report otherwise

B1: full-length human SEPT7 (untagged, as in the octamers), Q16181 1-437 (natural protein)
chain: MSVSARSAAAEERSVNSSTMVAQQKNLEGYVGFANLPNQVYRKSVKRGFEFTLMVVGESGLGKSTLINSLFLTDLYSPEYPGPSHRIKKTVQVEQSKVLIKEGGVQLLLTIVDTPGFGDAVDNSNCWQPVIDYIDSKFEDYLNAESRVNRRQMPDNRVQCCLYFIAPSGHGLKPLDIEFMKRLHEKVNIIPLIAKADTLTPEECQQFKKQIMKEIQEHKIKIYEFPETDDEEENKLVKKIKDRLPLAVVGSNTIIEVNGKRVRGRQYPWGVAEVENGEHCDFTILRNMLIRTHMQDLKDVTNNVHYENYRSRKLAAVTYNGVDNNKNKGQLTKSPLAQMEEERREHVAKMKKMEMEMEQVFEMKVKEKVQKLKDSEAELQRRHEQMKKNLEAQHKELEEKRRQFEDEKANWEAQQRILEQQNSSRTLEKNKKKGKIF
- stoichiometry N: 1
